Patent US12329806B2, “Compound for modulating rlr, tlr, oas and/or oncostatin m pathways, use thereof for preparing a medicine, composition, method for modulating said pathways and method of treatment” (Instituto Butantan, priority 2018, dated 2025)

What was measured:
Assay in all cases: Cell viability tests (survival rate), previous experiment
Settings in all cases: rounded values
Mia-PaCa-2 cells = type: cell-based, human
Text: (§1) ER stress also promotes mitochondrial dysfunction, Cytochrome c release, PARP cleavage, Ca+^2 mobilization and caspase activation in SK-MEL-28 and Mia-PaCa-2 cells, positively regulating CASP3. The survival rate of the previous experiment, calculated using cell viability tests, is herein summarized: Mia-PaCa-2 67%, SK-MEL-28 44%, SK-MEL-5 42%, non-tumoral human fibroblasts 100% (rounded values). These numbers indicate that part of the cells possibly survives through a positive unfolded protein response (UPR) and part dies. […] Furthermore, autophagy could also be evoked to recover a global tissue homeostasis, and, in this case, there is the signature of immunogenic cell death (ICD). It is believed that the ICD could explain this.

SK-MEL-28 cells = type: cell-based, human
Text: as §1

SK-MEL-5 = type: cell-based
Text: as §1

[1] = system: non-tumoral human fibroblasts; type: cell-based
Text: as §1

B1: Amblyomin-X: recombinant Kunitz type protein identified in a cDNA library of Amblyomma sculptum tick salivary glands (protein)
chain: MRQLAVLALVIFTGMCVESQSANSKAVCNLPKLAGDETCSNKTEIRWYYNGTACEAFIFKGCGGNDNNFDRVDDCQRLCEEQTHFHFESPKLICFKVQDYWILNDIMKKNLTGISLKSEEEDADSGEID
modifications: Amblyomin-X
notes: recombinant Kunitz type protein identified in a cDNA library of Amblyomma sculptum tick salivary glands
- survival rate (Mia-PaCa-2 cells): 67%
- survival rate (SK-MEL-28 cells): 44%
- survival rate (SK-MEL-5): 42%
- survival rate [1]: 100%
